Measured values as given in US20230147657A1 (INSERM INSTITUT NATIONAL DE LA SANT ET DE LA RECHERCHE M …, published 2023).

T1: human CD45RC (human, UniProt P08575 26-1306)
T1 construct: Native protein on human blood leukocytes / PBMC / T cells of healthy volunteers; also called hCD45RC
T1 sequence: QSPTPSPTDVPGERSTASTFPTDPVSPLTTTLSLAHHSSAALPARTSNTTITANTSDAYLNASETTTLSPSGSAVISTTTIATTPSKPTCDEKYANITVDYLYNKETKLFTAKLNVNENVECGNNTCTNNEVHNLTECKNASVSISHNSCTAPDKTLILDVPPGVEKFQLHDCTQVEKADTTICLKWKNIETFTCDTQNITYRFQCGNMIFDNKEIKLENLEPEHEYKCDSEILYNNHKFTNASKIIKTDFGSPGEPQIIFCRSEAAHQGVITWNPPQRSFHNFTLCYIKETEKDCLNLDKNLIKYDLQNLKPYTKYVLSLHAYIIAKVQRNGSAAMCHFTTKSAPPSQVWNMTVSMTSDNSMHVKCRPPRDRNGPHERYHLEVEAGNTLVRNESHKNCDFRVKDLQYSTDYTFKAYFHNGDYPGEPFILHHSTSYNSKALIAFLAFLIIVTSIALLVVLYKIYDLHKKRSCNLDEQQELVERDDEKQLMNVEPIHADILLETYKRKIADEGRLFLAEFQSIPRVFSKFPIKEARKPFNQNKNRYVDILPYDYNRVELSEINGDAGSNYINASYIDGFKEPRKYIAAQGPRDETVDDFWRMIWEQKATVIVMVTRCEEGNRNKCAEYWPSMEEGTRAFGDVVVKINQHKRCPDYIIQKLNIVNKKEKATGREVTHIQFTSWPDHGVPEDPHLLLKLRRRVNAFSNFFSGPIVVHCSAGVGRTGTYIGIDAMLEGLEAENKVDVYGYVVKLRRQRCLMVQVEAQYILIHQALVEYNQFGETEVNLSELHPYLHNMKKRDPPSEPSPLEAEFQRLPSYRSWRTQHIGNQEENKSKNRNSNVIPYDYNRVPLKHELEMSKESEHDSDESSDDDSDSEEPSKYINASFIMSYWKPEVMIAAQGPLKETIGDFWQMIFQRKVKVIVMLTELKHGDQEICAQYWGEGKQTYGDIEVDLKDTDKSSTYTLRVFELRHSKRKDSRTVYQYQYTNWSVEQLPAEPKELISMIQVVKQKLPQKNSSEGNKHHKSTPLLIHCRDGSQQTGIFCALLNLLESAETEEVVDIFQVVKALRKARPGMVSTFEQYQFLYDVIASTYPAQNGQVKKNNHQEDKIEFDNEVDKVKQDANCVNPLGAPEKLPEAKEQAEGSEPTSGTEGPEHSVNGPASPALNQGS

T2: human CD45RC in solubilized cell membranes (CD45RC^high PBMCs or CHO cells expressing CD45RC) (human, UniProt P08575 26-1306)
T2 sequence: T1 sequence

B1: ABIS-45RC (antibody, mouse IgG1, kappa, V domains shown)
VH: QVQLQQSGAELVRPGTSVKMSCKAAGYTFTNYYIGWVKQRPGHGLEWIGDIFPGGDYANSNEKFKGKATLTADTSSSTAYMQLSSLTSEDSAIYYCVRRNFDYWGQGTTLTVSS
VL: QIVLTQSPTIMSASPGEKVTITCSASSSVSYMHWFQQKTGTSPRLWIYNTSNLPSGVPARFSGSGSGTSYSLTISRMEAEDAATYYCQQRSSYPLTFGAGTKLELKR
notes: also called murine ABIS-45RC; ABIS-CD45RC

Key:
human CD45RC [1] = target: T1, human CD45RC; test: cell-based or functional assay
[2] = target: T2, human CD45RC in solubilized cell …; test: SPR (BIAcore 3000 / T200), ABIS-45RC immobilized on CM5 chip, solubilized cell membranes as analyte, 25 °C, single cycle kinetics and calibration free concentration analysis
Excerpt: Briefly, 1×10⁷ CD45RC^high PBMCs or CHO cells expressing CD45RC after plasmid transfection were solubilized using the Mem-PER membrane isolation kit (Thermo-fisher).

human CD45RC [3] = target: T1, human CD45RC; test: flow cytometry on T cells of human PBMC; biotin anti-human IgG + streptavidin PerCP-Cy5.5

Molecule | apoptosis of human T cells after 18 h with transduced Jurkat cells (annexin V / DAPI) (human CD45RC [1]) [%] | Kd [2] [nM] | koff [2] [s⁻¹] | kon [2] [M⁻¹ s⁻¹] | % of T cells in the CD45RC gate at 1 µg/mL (human CD45RC [3]) [%] | % of T cells in the CD45RC gate at 2 µg/mL (human CD45RC [3]) [%]
Ctrl-CAR (control CAR having a different antigenic specificity) (receptor) | 7 to 8 | – | – | – | – | –
B1 | – | 50 | 0.0144 | 291000 | 61.3 | 61.1
